Assay results: article PMC12381655

Target: PABP (hPABPC1) (human, UniProt P11940 1-636)
Assay: SPR

PABP (hPABPC1), sequence (P11940 whole entry): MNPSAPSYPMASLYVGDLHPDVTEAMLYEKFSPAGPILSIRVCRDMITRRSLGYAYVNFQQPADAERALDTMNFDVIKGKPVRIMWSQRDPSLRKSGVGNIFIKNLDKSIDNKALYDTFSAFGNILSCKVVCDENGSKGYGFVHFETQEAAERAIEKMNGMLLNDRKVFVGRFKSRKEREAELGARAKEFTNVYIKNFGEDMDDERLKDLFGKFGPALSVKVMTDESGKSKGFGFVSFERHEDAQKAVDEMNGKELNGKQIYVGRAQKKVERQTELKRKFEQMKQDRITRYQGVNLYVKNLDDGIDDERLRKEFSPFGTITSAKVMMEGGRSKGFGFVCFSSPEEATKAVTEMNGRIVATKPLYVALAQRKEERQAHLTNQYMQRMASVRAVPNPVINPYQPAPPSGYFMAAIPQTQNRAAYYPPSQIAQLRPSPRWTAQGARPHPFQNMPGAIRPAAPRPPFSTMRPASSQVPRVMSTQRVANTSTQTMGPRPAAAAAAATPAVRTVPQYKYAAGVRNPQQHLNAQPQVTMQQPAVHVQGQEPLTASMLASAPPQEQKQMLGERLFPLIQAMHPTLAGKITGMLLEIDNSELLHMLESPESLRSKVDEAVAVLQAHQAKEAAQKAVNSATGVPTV

B1: Biotin-RNA3 (A24 DNA) (XNA)
strand: AAAAAAAAAAAAAAAAAAAAAAAA
modifications: 2'-deoxy A substitutions, about 50% by design (positions in Table S2/Fig. 3A not in material)
Does B1 bind?
Result: no binding

Does AAAAAAAAAAAAAAAAAAAAAAAA (XNA, 2'-O-methyl A, 50% substitution (positions in Table S2/Fig. 3A not in material)) [Biotin-RNA4 (A24 2'-OMe)] bind?
Result: no binding

B2: Biotin-RNA5 (A24 2'-MOE) (XNA)
strand: AAAAAAAAAAAAAAAAAAAAAAAA
modifications: 2'-O-methoxyethyl A, about 50% by design (positions in Table S2/Fig. 3A not in material)
Does B2 bind?
Result: no binding

Does AAAAAAAAAAAAAAAAAAAAAAAA (XNA, 2'-fluoro A, 50% substitution (positions in Table S2/Fig. 3A not in material)) [Biotin-RNA6 (A24 2'-F)] bind?
Result: no binding

Does ACUGCGCUGAUUUUUUUUUUUUUUUUUUUUUUUUUUUUUUUUUUUUUUUU (ssRNA) [Biotin-RNA8 (U40)] bind?
Result: no binding
